Measured values: article PMC6633398

Tests used:
[1] = biological target: CASP (encoded by CUX1; isoform 4) (UniProt Q13948); assay: co-immunoprecipitation (IP: c-Myc) from cytosol, western blot quantification; conditions: absence of detergent, n=4, parent: est. 1.0, read off a plot
[2] = biological target: golgin-84 (also known as GOLGA5) (UniProt Q8TBA6); assay: as above; conditions: absence of detergent, n=4, parent: est. 1.0, read off a plot
Sequence of golgin-84 (also known as GOLGA5) (Q8TBA6 whole entry): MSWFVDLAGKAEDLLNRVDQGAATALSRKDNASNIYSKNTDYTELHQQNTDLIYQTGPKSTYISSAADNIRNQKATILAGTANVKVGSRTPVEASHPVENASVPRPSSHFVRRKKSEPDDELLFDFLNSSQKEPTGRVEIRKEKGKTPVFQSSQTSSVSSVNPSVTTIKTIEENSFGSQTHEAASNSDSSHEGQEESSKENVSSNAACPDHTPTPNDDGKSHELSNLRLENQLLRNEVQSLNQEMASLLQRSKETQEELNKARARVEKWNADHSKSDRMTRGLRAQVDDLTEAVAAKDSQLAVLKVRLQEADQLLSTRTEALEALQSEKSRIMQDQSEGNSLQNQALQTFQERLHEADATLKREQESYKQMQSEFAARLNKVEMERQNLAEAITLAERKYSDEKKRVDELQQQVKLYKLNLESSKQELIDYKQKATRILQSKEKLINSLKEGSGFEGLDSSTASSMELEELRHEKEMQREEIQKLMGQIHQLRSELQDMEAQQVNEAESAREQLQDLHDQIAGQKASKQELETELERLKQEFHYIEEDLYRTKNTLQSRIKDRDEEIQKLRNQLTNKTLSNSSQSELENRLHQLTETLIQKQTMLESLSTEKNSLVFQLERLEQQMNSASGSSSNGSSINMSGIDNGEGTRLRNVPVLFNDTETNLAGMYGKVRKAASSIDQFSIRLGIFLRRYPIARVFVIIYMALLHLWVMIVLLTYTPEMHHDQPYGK

Sequence of CASP (encoded by CUX1; isoform 4) (Q13948 whole entry, canonical isoform): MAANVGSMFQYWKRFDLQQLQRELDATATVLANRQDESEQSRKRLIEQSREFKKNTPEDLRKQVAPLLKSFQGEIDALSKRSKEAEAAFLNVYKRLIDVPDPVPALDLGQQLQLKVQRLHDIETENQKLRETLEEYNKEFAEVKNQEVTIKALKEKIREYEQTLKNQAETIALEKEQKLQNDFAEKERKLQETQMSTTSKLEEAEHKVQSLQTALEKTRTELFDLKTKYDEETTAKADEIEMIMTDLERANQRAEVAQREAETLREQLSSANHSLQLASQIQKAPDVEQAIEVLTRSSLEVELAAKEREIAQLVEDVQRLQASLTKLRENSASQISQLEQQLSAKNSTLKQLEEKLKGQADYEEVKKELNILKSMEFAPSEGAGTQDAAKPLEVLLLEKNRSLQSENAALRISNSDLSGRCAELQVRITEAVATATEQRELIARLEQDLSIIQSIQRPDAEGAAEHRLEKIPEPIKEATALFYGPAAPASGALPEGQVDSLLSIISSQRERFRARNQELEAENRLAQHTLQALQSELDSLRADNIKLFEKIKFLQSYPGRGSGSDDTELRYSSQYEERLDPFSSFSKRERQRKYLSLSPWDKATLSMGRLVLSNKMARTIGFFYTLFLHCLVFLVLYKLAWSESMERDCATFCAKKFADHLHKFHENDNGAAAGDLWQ
Sequence of c-Myc–TRC40 (wild-type TRC40, also known as ASNA1), O43681 D74E; L190D; I193D (O43681 whole entry D74E/L190D/I193D): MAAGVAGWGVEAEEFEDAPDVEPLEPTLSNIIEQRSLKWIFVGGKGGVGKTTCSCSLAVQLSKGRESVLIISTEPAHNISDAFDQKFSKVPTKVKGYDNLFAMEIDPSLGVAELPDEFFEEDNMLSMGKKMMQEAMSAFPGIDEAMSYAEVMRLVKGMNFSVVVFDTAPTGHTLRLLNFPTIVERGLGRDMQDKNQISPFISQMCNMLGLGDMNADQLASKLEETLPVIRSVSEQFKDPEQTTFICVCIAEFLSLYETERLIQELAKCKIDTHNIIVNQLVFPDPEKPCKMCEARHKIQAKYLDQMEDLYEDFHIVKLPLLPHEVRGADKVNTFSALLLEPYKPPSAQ
Sequence of c-Myc–TRC40 (wild-type TRC40, also known as ASNA1), O43681 D74E; L190K; I193K (O43681 whole entry D74E/L190K/I193K): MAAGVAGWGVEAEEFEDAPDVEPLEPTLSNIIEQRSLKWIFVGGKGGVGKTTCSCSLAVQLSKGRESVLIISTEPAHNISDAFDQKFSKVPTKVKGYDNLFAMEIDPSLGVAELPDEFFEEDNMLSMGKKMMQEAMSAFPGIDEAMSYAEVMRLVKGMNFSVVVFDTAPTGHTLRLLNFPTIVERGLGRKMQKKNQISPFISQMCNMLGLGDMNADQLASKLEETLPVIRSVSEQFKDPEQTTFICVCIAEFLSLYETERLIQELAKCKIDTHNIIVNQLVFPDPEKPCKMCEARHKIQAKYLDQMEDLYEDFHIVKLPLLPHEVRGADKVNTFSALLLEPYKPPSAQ
Sequence of c-Myc–TRC40 (wild-type TRC40, also known as ASNA1), O43681 D74E (O43681 whole entry D74E): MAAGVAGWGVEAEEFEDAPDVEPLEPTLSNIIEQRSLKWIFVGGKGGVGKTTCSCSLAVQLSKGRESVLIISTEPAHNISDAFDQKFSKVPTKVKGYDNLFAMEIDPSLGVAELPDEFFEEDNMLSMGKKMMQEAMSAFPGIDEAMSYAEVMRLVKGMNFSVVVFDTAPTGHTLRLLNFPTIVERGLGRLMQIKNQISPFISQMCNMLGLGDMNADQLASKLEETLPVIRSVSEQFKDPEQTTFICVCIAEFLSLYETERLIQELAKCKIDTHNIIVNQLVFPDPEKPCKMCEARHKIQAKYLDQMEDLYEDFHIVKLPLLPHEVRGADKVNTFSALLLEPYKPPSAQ

ratio to parent [1] | ratio to parent [2] | Substance
14 | 9 | c-Myc–TRC40 (wild-type TRC40, also known as ASNA1), O43681 D74E; L190K; I193K
23 | 21 | c-Myc–TRC40 (wild-type TRC40, also known as ASNA1), O43681 D74E; L190D; I193D
4.7 | 13 | c-Myc–TRC40 (wild-type TRC40, also known as ASNA1), O43681 D74E
